According to US20110136740A1 (Stanford University, published 2011):
Where a chain is given by its changes, count along the chain named. Ends that are not written are not given here.

B1: engineered AgRP peptide 2bA (soluble, N-terminal FLAG tag and C-terminal hexahistidine tag) (peptide)
chain: DYKDDDDKGCVRLHESCLGQQVPCCDPAATCYCLKRGDWKGKCYCRHHHHHH
modifications: ends and bridges not checked; cysteine pairing not given here
notes: also called clone 2bA; αIIbβ3-specific peptide 2bA
B2: engineered AgRP peptide 2bJ (soluble, N-terminal FLAG tag and C-terminal hexahistidine tag) (peptide)
chain: B1 chain with L34N, K40R, G41S
modifications: ends and bridges not checked; cysteine pairing not given here
notes: also called clone 2bJ; αIIbβ3-specific peptide 2bJ
B3: engineered AgRP peptide b3A (soluble, N-terminal FLAG tag and C-terminal hexahistidine tag) (peptide)
chain: B1 chain with L34V, K35G, W39V, K40R, G41R
modifications: ends and bridges not checked; cysteine pairing not given here
notes: also called clone b3A; β3-specific peptide b3A
B4: engineered AgRP peptide b3I (soluble, N-terminal FLAG tag and C-terminal hexahistidine tag) (peptide)
chain: B1 chain with L34R, K35G, W39V, G41L, K42R
modifications: ends and bridges not checked; cysteine pairing not given here
notes: also called clone b3I; β3-specific peptide b3I
B5: engineered AgRP peptide 2bO (soluble, N-terminal FLAG tag and C-terminal hexahistidine tag) (peptide)
chain: B1 chain with L34K, G41E, K42R
modifications: ends and bridges not checked; cysteine pairing not given here
notes: also called clone 2bO; αIIbβ3-specific peptide 2bO

Target: T1, α5β1 integrin naturally expressed on wild-type K562 cells (UniProt P08648 42-1049; P05556 21-798)
T1 construct: whole, on cells
T1 sequence (P08648 42-1049, chain 1 of 2): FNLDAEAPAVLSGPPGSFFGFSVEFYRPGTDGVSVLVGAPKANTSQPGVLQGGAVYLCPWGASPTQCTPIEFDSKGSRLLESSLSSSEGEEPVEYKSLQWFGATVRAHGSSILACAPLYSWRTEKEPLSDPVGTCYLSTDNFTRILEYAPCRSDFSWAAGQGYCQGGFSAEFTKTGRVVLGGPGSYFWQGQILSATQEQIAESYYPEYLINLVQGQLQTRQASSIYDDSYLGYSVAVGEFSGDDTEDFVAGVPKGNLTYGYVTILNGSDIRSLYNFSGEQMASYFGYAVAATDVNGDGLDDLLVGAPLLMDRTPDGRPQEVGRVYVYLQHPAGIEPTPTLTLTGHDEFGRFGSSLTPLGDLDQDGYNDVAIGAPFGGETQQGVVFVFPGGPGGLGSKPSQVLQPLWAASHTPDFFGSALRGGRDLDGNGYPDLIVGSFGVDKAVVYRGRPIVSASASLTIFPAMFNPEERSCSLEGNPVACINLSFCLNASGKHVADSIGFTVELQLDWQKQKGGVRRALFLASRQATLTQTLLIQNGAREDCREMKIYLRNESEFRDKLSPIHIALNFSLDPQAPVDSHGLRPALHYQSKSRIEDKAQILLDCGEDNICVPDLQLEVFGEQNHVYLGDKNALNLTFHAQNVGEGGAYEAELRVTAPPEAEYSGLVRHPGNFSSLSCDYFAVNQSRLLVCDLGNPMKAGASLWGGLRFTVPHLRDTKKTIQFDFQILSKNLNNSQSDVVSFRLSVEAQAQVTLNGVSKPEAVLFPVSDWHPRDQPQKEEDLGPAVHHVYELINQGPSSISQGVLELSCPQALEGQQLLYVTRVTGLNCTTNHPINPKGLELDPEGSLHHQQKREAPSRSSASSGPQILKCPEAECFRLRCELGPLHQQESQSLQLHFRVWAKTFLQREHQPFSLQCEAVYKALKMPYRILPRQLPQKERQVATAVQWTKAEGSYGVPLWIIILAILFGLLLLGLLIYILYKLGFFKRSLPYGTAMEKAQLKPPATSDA
T1 sequence (P05556 21-798, chain 2 of 2): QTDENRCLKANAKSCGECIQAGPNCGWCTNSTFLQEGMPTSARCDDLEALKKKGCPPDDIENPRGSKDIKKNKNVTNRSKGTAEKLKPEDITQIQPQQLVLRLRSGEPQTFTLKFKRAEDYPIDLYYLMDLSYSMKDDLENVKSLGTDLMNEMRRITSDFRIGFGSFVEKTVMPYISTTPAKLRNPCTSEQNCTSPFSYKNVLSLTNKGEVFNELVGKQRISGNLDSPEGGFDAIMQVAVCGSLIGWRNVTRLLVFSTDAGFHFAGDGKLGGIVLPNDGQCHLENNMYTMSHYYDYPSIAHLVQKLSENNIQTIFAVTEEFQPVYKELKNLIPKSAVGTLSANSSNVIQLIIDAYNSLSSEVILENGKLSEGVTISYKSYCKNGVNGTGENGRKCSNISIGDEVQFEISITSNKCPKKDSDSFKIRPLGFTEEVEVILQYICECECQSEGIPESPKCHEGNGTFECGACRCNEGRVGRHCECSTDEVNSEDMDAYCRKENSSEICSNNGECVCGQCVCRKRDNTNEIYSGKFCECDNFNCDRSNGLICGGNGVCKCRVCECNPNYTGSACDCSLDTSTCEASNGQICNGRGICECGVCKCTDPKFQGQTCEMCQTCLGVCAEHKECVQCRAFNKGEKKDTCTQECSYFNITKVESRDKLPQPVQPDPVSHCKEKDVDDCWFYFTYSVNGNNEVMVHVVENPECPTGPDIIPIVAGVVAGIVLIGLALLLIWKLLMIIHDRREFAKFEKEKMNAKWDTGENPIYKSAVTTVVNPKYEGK
Assay: flow cytometry, direct binding to wild-type K562 cells

Molecule	binding result
B1	no binding (tested: 1 µM)
B2	no binding (tested: 1 µM)
B3	no binding (tested: 1 µM)
B4	no binding (tested: 1 µM)
B5	no binding (tested: 1 µM)

Target: αIIbβ3 integrin on human platelets (human) (UniProt P08514)
Assay: cell-based or functional assay

Molecule	aggregation (IC50; nM), human platelets	inhibition of ADP-induced platelet aggregation, IC50
eptifibatide (peptide)	94 nM	80 nM

Target: T2, αIIbβ3 integrin expressed on K562-αIIbβ3 cells (UniProt P08514 32-1039; P05106 27-788)
T2 construct: whole, on cells; also called cell surface expressed αIIbβ3 integrin; GPIIb-IIIa
Assay: flow cytometry, peptide titrated on K562-αIIbβ3 cells, anti-His detection

Molecule	Kd
B1	87 nM
B2	59 nM
B3	42 nM
B4	70 nM
B5	87 nM

Target: T3, αvβ3 integrin expressed on K562-αvβ3 cells (UniProt P06756 31-1048; P05106 27-788)
T3 construct: whole, on cells
T3 sequence (P06756 31-1048, chain 1 of 2): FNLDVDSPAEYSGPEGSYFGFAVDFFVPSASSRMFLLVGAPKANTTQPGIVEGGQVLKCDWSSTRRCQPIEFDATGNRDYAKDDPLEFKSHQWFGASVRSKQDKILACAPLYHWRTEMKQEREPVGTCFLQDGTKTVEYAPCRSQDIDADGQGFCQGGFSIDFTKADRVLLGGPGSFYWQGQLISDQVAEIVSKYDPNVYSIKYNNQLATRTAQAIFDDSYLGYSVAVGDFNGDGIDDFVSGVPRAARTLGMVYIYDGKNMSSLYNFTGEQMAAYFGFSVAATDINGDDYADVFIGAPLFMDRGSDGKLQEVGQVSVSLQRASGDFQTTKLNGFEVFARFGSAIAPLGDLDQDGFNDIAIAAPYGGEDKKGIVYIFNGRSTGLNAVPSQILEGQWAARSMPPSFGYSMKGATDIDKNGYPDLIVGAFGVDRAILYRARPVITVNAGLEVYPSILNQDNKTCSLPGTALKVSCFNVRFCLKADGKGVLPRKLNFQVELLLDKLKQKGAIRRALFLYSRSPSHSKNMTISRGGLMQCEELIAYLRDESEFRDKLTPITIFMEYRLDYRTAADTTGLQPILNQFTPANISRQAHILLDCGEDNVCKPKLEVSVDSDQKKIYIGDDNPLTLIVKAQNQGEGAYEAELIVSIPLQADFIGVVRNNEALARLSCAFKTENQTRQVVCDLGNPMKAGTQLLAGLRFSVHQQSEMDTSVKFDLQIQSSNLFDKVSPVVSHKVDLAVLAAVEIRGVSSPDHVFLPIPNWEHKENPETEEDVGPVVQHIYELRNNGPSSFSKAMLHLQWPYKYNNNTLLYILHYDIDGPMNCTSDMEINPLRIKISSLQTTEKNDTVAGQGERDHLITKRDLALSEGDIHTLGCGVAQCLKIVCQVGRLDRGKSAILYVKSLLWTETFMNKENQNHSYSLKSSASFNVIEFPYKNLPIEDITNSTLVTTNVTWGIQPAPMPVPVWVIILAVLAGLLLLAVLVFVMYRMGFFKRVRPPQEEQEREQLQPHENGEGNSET
T3 sequence (P05106 27-788, chain 2 of 2): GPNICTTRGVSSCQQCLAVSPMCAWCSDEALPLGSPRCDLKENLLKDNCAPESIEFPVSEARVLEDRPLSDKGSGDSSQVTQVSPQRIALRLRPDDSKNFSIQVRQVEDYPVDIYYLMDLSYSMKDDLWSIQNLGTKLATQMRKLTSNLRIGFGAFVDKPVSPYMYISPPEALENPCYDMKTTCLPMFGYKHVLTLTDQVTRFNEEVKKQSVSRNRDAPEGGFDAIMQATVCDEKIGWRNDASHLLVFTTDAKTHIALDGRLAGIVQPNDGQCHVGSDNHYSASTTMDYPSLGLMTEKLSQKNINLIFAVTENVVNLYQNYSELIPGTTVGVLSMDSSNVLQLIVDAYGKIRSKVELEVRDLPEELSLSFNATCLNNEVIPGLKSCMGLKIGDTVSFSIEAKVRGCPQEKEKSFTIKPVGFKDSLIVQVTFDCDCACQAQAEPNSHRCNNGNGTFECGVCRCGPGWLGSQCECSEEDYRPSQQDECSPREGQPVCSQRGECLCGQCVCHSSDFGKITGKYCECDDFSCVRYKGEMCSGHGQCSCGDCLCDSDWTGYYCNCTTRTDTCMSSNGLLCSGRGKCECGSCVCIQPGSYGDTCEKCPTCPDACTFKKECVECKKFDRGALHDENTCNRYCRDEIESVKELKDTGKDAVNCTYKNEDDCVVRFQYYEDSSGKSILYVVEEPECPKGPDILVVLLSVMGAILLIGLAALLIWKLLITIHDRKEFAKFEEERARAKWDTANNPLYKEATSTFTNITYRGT
Assay: flow cytometry, peptide titrated on K562-αvβ3 cells

Molecule	Kd
B3	~25 nM
B4	~25 nM

Target: T3, αvβ3 integrin expressed on K562-αvβ3 …
Assay: flow cytometry, direct binding to K562-αvβ3 cells, anti-His detection

Molecule	binding result
B1	no binding (tested: 1 µM)
B2	no binding (tested: 1 µM)
B5	no binding (tested: 1 µM)

Target: αIIbβ3 integrin on human platelets (human, UniProt P08514 32-1039; P05106 27-788)
Assay: cell-based or functional assay

Molecule	aggregation (IC50; nM), human platelets
B1	72 nM
B2	91 nM
B3	50 nM
B4	66 nM
B5	110 nM

Target: T3, αvβ3 integrin expressed on K562-αvβ3 …
Assay: flow cytometry, peptide titrated on K562-αvβ3 cells, anti-His detection

Molecule	Kd
B3	23 nM
B4	28 nM

Target: T4, αvβ5 integrin expressed on K562-αvβ5 cells (UniProt P06756 31-1048; P18084 24-799)
T4 construct: whole, on cells
T4 sequence (P06756 31-1048, chain 1 of 2): as the sequence (P06756 31-1048, chain 1 of 2) above
T4 sequence (P18084 24-799, chain 2 of 2): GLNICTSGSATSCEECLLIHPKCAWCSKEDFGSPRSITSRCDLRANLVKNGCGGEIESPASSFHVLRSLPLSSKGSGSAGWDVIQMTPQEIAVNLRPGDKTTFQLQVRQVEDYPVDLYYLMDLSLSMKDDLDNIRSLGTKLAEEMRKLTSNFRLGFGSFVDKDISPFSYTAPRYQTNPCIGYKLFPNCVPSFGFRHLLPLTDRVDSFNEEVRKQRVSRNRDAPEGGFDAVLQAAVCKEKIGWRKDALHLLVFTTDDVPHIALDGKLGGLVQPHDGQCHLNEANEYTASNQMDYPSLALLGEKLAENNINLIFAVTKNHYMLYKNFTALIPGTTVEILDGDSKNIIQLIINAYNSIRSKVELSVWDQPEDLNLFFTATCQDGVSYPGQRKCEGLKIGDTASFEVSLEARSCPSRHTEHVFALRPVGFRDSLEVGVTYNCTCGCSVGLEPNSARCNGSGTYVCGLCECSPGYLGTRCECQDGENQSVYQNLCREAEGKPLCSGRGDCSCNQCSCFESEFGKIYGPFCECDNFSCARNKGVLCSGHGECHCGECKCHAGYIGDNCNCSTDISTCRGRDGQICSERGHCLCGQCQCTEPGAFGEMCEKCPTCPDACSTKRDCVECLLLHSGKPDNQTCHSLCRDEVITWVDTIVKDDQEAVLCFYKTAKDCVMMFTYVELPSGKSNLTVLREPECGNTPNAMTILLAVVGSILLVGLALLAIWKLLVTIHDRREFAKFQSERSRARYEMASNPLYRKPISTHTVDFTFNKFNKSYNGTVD
Assay: flow cytometry, direct binding to K562-αvβ5 cells

Molecule	binding result
B1	no binding (tested: 1 µM)
B2	no binding (tested: 1 µM)
B3	no binding (tested: 1 µM)
B4	no binding (tested: 1 µM)
B5	no binding (tested: 1 µM)
